# In US20250163162A1:
# T1: IL10Rα and IL2Rγ on human primary cells (CD8 T cells, CD4 T cells, monocytes) (human) (UniProt Q13651)
# T1 sequence (looked up) 1: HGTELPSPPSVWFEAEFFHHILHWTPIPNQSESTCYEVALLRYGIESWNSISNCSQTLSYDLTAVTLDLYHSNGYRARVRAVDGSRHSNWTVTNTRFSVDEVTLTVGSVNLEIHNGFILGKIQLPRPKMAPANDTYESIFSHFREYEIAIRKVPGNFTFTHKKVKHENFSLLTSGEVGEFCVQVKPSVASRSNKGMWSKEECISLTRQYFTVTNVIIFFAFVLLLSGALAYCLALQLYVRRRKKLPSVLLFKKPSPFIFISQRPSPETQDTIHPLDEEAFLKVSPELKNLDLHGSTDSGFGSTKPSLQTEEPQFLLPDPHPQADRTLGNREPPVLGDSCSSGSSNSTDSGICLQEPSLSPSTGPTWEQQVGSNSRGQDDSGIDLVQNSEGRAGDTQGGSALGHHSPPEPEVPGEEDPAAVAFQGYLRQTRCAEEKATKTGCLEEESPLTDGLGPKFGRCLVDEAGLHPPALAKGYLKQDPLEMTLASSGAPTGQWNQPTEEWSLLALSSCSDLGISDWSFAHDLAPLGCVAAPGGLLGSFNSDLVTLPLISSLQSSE
# T1 sequence (looked up) 2: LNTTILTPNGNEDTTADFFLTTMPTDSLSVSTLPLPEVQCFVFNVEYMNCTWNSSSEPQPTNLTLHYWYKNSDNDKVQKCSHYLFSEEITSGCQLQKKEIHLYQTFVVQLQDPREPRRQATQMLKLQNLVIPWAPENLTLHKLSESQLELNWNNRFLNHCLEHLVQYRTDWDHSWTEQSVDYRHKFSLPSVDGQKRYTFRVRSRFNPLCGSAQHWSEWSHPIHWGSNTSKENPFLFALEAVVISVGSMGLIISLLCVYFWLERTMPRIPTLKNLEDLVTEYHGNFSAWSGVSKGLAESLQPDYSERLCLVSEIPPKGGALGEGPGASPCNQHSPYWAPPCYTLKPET
# T2: IL10Rα/IL2Rγ receptor (human) (UniProt Q13651)
# T2 sequence (looked up) 1: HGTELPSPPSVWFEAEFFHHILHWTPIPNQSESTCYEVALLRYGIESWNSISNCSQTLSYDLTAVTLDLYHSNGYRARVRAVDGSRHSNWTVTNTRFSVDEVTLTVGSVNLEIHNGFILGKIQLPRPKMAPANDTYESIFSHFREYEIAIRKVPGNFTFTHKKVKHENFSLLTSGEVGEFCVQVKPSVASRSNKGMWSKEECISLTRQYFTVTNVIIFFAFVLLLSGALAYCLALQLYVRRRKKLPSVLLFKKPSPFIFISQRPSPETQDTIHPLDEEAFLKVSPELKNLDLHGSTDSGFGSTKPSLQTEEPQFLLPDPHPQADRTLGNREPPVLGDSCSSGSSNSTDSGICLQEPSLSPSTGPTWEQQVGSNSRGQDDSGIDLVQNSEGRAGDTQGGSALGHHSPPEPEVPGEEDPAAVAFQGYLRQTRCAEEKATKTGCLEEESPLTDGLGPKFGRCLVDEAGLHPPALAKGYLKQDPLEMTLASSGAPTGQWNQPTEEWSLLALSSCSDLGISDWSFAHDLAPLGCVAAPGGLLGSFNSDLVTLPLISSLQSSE
# T2 sequence (looked up) 2: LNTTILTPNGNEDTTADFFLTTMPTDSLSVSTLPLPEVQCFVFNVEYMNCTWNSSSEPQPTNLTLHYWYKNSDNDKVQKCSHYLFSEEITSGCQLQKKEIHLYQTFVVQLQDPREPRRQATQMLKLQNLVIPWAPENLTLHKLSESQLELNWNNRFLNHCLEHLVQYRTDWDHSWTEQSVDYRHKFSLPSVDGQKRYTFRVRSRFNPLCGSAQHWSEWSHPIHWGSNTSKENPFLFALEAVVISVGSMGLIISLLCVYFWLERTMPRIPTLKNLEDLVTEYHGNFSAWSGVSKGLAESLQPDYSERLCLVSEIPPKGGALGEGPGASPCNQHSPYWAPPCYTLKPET
# Experiments:
# [1] = biological target: T1, IL10Rα and IL2Rγ on human primary cells (CD8 T cells, CD4 T cells, monocytes) (human); experiment: cell-based or functional assay
# [2] = biological target: T2, IL10Rα/IL2Rγ receptor (human); experiment: cell-based or functional assay
binder,measurement,setting,value
"hIL10Ra_VHH14-hIL2Rg_VHH19, linker GGGS, tag Fc (Fc fusion, not shown: a dimerising Fc or GST) QVQLQESGGGSVQAGGSLRLSCGASGYTYSSYCMGWFRQVPGKEREGVAVIDSDGSTSYADSVKGRFTISKDNGKNTLYLQMNSLKPEDTAMYYCAADLGHYRPPCGVLYLGMDYWGKGTQVTVSSGGGSQVQLQESGGGSVQAGGSLRLSCTASGFTFDDREMNWYRQAPGNECELVSTISSDGSTYYADSVKGRFTISQDNAKNTVYLQMDSVKPEDTAVYYCAADFMIAIQAPGAGCWGQGTQVTVSS",pSTAT3 (MFI) in CD4 T cells at 0.0001 µM,[1],12600 MFI
same,pSTAT3 (MFI) in CD4 T cells at 0.001 µM,[1],12600 MFI
same,pSTAT3 (MFI) in CD4 T cells at 0.01 µM,[1],12500 MFI
same,pSTAT3 (MFI) in CD4 T cells at 0.1 µM,[1],11300 MFI
same,pSTAT3 (MFI) in CD4 T cells at 1 µM,[1],13600 MFI
same,pSTAT3 (MFI) in CD4 T cells at 10 µM,[1],14800 MFI
same,pSTAT3 (MFI) in CD4 T cells at 100 µM,[1],16000 MFI
same,pSTAT3 (MFI) in CD8 T cells at 0.0001 µM,[1],7540 MFI
same,pSTAT3 (MFI) in CD8 T cells at 0.001 µM,[1],7890 MFI
same,pSTAT3 (MFI) in CD8 T cells at 0.01 µM,[1],7800 MFI
same,pSTAT3 (MFI) in CD8 T cells at 0.1 µM,[1],7330 MFI
same,pSTAT3 (MFI) in CD8 T cells at 1 µM,[1],9320 MFI
same,pSTAT3 (MFI) in CD8 T cells at 10 µM,[1],12300 MFI
same,pSTAT3 (MFI) in CD8 T cells at 100 µM,[1],13200 MFI
same,pSTAT3 (MFI) in monocytes at 0.0001 µM,[1],4370 MFI
same,pSTAT3 (MFI) in monocytes at 0.001 µM,[1],4740 MFI
same,pSTAT3 (MFI) in monocytes at 0.01 µM,[1],4420 MFI
same,pSTAT3 (MFI) in monocytes at 0.1 µM,[1],4810 MFI
same,pSTAT3 (MFI) in monocytes at 1 µM,[1],5690 MFI
same,pSTAT3 (MFI) in monocytes at 10 µM,[1],6690 MFI
same,pSTAT3 (MFI) in monocytes at 100 µM,[1],6030 MFI
"hIL10Ra_VHH14 - hIL2Rg_VHH19, linker GGSGGS, tag his (bispecific antibody, not shown: small tags and cut ends) QVQLQESGGGSVQAGGSLRLSCGASGYTYSSYCMGWFRQVPGKEREGVAVIDSDGSTSYADSVKGRFTISKDNGKNTLYLQMNSLKPEDTAMYYCAADLGHYRPPCGVLYLGMDYWGKGTQVTVSSGGSGGSQVQLQESGGGSVQAGGSLRLSCTASGFTFDDREMNWYRQAPGNECELVSTISSDGSTYYADSVKGRFTISQDNAKNTVYLQMDSVKPEDTAVYYCAADFMIAIQAPGAGCWGQGTQVTVSS","Granzyme A secretion, CD8 T cells, at 0 µM",[2],25200 pg/mL
same,"Granzyme A secretion, CD8 T cells, at 0.0001 µM",[2],20800 pg/mL
same,"Granzyme A secretion, CD8 T cells, at 0.001 µM",[2],23000 pg/mL
same,"Granzyme A secretion, CD8 T cells, at 0.01 µM",[2],25300 pg/mL
same,"Granzyme A secretion, CD8 T cells, at 0.1 µM",[2],27100 pg/mL
same,"Granzyme A secretion, CD8 T cells, at 1 µM",[2],28700 pg/mL
same,"Granzyme A secretion, CD8 T cells, at 10 µM",[2],29400 pg/mL
same,"Granzyme A secretion, CD8 T cells, at 100 µM",[2],25600 pg/mL
same,"Granzyme B secretion, CD8 T cells, at 0 µM",[2],77700 pg/mL
same,"Granzyme B secretion, CD8 T cells, at 0.0001 µM",[2],54500 pg/mL
same,"Granzyme B secretion, CD8 T cells, at 0.001 µM",[2],50900 pg/mL
same,"Granzyme B secretion, CD8 T cells, at 0.01 µM",[2],54100 pg/mL
same,"Granzyme B secretion, CD8 T cells, at 0.1 µM",[2],62300 pg/mL
same,"Granzyme B secretion, CD8 T cells, at 1 µM",[2],77600 pg/mL
same,"Granzyme B secretion, CD8 T cells, at 10 µM",[2],90000 pg/mL
same,"Granzyme B secretion, CD8 T cells, at 100 µM",[2],77900 pg/mL
same,"IFNγ secretion, CD8 T cells, at 0 µM",[2],122000 pg/mL
same,"IFNγ secretion, CD8 T cells, at 0.0001 µM",[2],94700 pg/mL
same,"IFNγ secretion, CD8 T cells, at 0.001 µM",[2],110000 pg/mL
same,"IFNγ secretion, CD8 T cells, at 0.01 µM",[2],117000 pg/mL
same,"IFNγ secretion, CD8 T cells, at 0.1 µM",[2],122000 pg/mL
same,"IFNγ secretion, CD8 T cells, at 1 µM",[2],144000 pg/mL
same,"IFNγ secretion, CD8 T cells, at 10 µM",[2],149000 pg/mL
same,"IFNγ secretion, CD8 T cells, at 100 µM",[2],127000 pg/mL
same,"IL-1β secretion, LPS treated monocytes, at 0 µM",[2],6240 pg/mL
same,"IL-1β secretion, LPS treated monocytes, at 0 µM (LPS only)",[2],6880 pg/mL
same,"IL-1β secretion, LPS treated monocytes, at 0.0001 µM",[2],6290 pg/mL
same,"IL-1β secretion, LPS treated monocytes, at 0.001 µM",[2],5850 pg/mL
same,"IL-1β secretion, LPS treated monocytes, at 0.01 µM",[2],6100 pg/mL
same,"IL-1β secretion, LPS treated monocytes, at 0.1 µM",[2],4960 pg/mL
same,"IL-1β secretion, LPS treated monocytes, at 1 µM",[2],5780 pg/mL
same,"IL-1β secretion, LPS treated monocytes, at 10 µM",[2],6420 pg/mL
same,"IL-1β secretion, LPS treated monocytes, at 100 µM",[2],7840 pg/mL
same,"IL-9 secretion, CD8 T cells, at 0 µM",[2],1350 pg/mL
same,"IL-9 secretion, CD8 T cells, at 0.0001 µM",[2],951 pg/mL
same,"IL-9 secretion, CD8 T cells, at 0.001 µM",[2],1010 pg/mL
same,"IL-9 secretion, CD8 T cells, at 0.01 µM",[2],1140 pg/mL
same,"IL-9 secretion, CD8 T cells, at 0.1 µM",[2],1090 pg/mL
same,"IL-9 secretion, CD8 T cells, at 1 µM",[2],1440 pg/mL
same,"IL-9 secretion, CD8 T cells, at 10 µM",[2],1600 pg/mL
same,"IL-9 secretion, CD8 T cells, at 100 µM",[2],1700 pg/mL
